The subject of the data set is NC(=O)C1=CN([C@@H]2O[C@H](COP(=O)(O)OP(=O)(O)OC[C@H]3O[C@@H](n4cnc5c(N)ncnc54)[C@H](OP(=O)(O)O)[C@@H]3O)[C@@H](O)[C@H]2O)C=CC1. Briefly: purified protein. It counts as biochemical, Scoparia dulcis. Particulars: 100 μM cytochrome c, varied NADPH; 28 °C, pH 7.5 in table footnote (methods: 25 °C, 50 mM Tris pH 7.4).

Sequence of SdCPR (Scoparia dulcis) (chain, as listed by the source): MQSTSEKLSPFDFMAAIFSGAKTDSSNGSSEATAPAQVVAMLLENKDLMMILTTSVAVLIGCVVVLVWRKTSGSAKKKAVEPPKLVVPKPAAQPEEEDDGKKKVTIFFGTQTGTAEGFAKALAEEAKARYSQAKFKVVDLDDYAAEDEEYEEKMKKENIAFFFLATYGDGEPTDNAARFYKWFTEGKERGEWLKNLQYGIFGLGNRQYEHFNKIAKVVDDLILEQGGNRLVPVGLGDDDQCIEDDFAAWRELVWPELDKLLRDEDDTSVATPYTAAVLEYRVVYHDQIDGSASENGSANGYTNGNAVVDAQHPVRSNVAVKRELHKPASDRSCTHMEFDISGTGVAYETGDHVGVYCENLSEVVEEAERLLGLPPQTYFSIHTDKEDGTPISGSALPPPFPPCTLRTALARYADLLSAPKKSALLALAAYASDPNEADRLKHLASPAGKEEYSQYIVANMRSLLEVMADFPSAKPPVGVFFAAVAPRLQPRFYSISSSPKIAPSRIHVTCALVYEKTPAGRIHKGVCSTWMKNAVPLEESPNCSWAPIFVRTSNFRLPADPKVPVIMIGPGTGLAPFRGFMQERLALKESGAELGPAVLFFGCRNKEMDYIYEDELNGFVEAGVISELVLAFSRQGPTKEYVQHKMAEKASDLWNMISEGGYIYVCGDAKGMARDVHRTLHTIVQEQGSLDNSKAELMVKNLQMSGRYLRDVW

For the substance SdCPR (Scoparia dulcis), the Km (usually the substrate concentration at which the rate is half of its maximum) turned out to be 4.6 ± 0.9 µM; the Vmax (in general, the top rate of the reaction or transport when substrate is in excess) came to 2.3 µmol/min/mg; the kcat (commonly the maximal rate divided by the concentration of active sites) came out at 2.96 ± 0.13 s⁻¹; the kcat/Km (in general, the turnover number divided by the Michaelis constant) worked out at 665000 M⁻¹ s⁻¹.
